In US20250066503A1, “CELL INJURY INDUCING THERAPEUTIC DRUG FOR USE IN CANCER THERAPY” (CHUGAI SEIYAKU KABUSHIKI KAISHA, priority 2016, published 2025):
Numbering of substitutions follows the chain as printed.

B1: TR01H061-E22Hh/none-Hi-Kn010G3/L0226-k0 (antibody, V domains shown)
VH: QVQLVESGGGLVQPGRSLRLSCAASGFTFSNAWMHWVRQAPGKGLEWVAQIKDKSQNYATYYAESVKGRFTISRADSKNSIYLQMNSLKTEDTAVYYCRYVHYAASYGVDIWGQGTTVTVSS
VL: DIVMTQSPLSLPVTPGEPASISCRSSQSPVHSNRNTYIHWYQQKPGQAPRLLIYKVSNRFSGVPDRFSGSGSGTDFTLKISRVEAEDVGVYYCIQGTQVPYTFGQGTKLEIK
notes: one-arm
B2: TR01H067-E22Hh/none-Hi-Kn010G3/L0200-k0 (antibody, V domains shown)
VH: B1 VH with A75D, I81L, I111A
VL: B1 VL with S25P, I38L, I94G
notes: one-arm
B3: TR01H067-E22Hh/none-Hi-Kn010G3/L0215-k0 (antibody, V domains shown)
VH: B1 VH with A75D, I81L, I111A
VL: B1 VL with S28P, I94G
notes: one-arm
B4: TR01H067-E22Hh/none-Hi-Kn010G3/L0226-k0 (antibody, V domains shown)
VH: B1 VH with A75D, I81L, I111A
VL: B1 VL
notes: one-arm
B5: TR01H067-E22Hh/none-Hi-Kn010G3/L0248-k0 (antibody, V domains shown)
VH: B1 VH with A75D, I81L, I111A
VL: B1 VL with S25P, H39Q, I94Y
notes: one-arm
B6: TR01H067-E22Hh/none-Hi-Kn010G3/L0262-k0 (antibody, V domains shown)
VH: B1 VH with A75D, I81L, I111A
VL: B1 VL with S28P, I38L, I94A
notes: one-arm
B7: TR01H067-E22Hh/none-Hi-Kn010G3/TR01L015-k0 (antibody, V domains shown)
VH: B1 VH with A75D, I81L, I111A
VL: B1 VL with I38L, Q42L, A48S, R50Q, I94G
notes: one-arm
B8: TR01H067-E22Hh/none-Hi-Kn010G3/TR01L016-k0 (antibody, V domains shown)
VH: B1 VH with A75D, I81L, I111A
VL: B1 VL with I38L, Q42L, A48S, R50Q, I94Y
notes: one-arm
B9: TR01H067-E22Hh/none-Hi-Kn010G3/TR01L018-k0 (antibody, V domains shown)
VH: B1 VH with A75D, I81L, I111A
VL: B1 VL with R24Q, S25A, Q27E, I38L, Q42L, A48S, R50Q, I94G
notes: one-arm
B10: TR01H071-E22Hh/none-Hi-Kn010G3/L0200-k0 (antibody, V domains shown)
VH: B1 VH with Q56N
VL: B1 VL with S25P, I38L, I94G
notes: one-arm
B11: TR01H071-E22Hh/none-Hi-Kn010G3/L0215-k0 (antibody, V domains shown)
VH: B1 VH with Q56N
VL: B1 VL with S28P, I94G
notes: one-arm
B12: TR01H071-E22Hh/none-Hi-Kn010G3/L0226-k0 (antibody, V domains shown)
VH: B1 VH with Q56N
VL: B1 VL
notes: one-arm
B13: TR01H081-E22Hh/none-Hi-Kn010G3/L0262-k0 (antibody, V domains shown)
VH: B1 VH with S106G
VL: B1 VL with S28P, I38L, I94A
notes: one-arm
B14: TR01H082-E22Hh/none-Hi-Kn010G3/L0258-k0 (antibody, V domains shown)
VH: B1 VH with A75D, I81L, S106G, I111A
VL: B1 VL with S28P, I38L, I94T
notes: one-arm
B15: TR01H082-E22Hh/none-Hi-Kn010G3/L0259-k0 (antibody, V domains shown)
VH: B1 VH with A75D, I81L, S106G, I111A
VL: B1 VL with I94T
notes: one-arm
B16: TR01H082-E22Hh/none-Hi-Kn010G3/L0260-k0 (antibody, V domains shown)
VH: B1 VH with A75D, I81L, S106G, I111A
VL: B1 VL with S25P, I38L, I94T
notes: one-arm
B17: TR01H082-E22Hh/none-Hi-Kn010G3/L0262-k0 (antibody, V domains shown)
VH: B1 VH with A75D, I81L, S106G, I111A
VL: B1 VL with S28P, I38L, I94A
notes: one-arm
B18: TR01H082-E22Hh/none-Hi-Kn010G3/L0263-k0 (antibody, V domains shown)
VH: B1 VH with A75D, I81L, S106G, I111A
VL: B1 VL with I94A
notes: one-arm
B19: TR01H082-E22Hh/none-Hi-Kn010G3/L0264-k0 (antibody, V domains shown)
VH: B1 VH with A75D, I81L, S106G, I111A
VL: B1 VL with S25P, I38L, I94A
notes: one-arm
B20: TR01H082-E22Hh/none-Hi-Kn010G3/L0266-k0 (antibody, V domains shown)
VH: B1 VH with A75D, I81L, S106G, I111A
VL: B1 VL with S28P, I38L, I94V
notes: one-arm
B21: TR01H082-E22Hh/none-Hi-Kn010G3/L0267-k0 (antibody, V domains shown)
VH: B1 VH with A75D, I81L, S106G, I111A
VL: B1 VL with S25P, I38L, I94V
notes: one-arm
B22: TR01H082-E22Hh/none-Hi-Kn010G3/L0268-k0 (antibody, V domains shown)
VH: B1 VH with A75D, I81L, S106G, I111A
VL: B1 VL with H39Q, I94V
notes: one-arm
B23: TR01H082-E22Hh/none-Hi-Kn010G3/L0270-k0 (antibody, V domains shown)
VH: B1 VH with A75D, I81L, S106G, I111A
VL: B1 VL with P29L, N35Q, I38L, I94G
notes: one-arm
B24: TR01H082-E22Hh/none-Hi-Kn010G3/L0271-k0 (antibody, V domains shown)
VH: B1 VH with A75D, I81L, S106G, I111A
VL: B1 VL with S28P, N35Q, I38L, I94G
notes: one-arm
B25: TR01H082-E22Hh/none-Hi-Kn010G3/L0272-k0 (antibody, V domains shown)
VH: B1 VH with A75D, I81L, S106G, I111A
VL: B1 VL with S28P, P29L, N35Q, I38L, I94G
notes: one-arm
B26: TR01H082-E22Hh/none-Hi-Kn010G3/TR01L017-k0 (antibody, V domains shown)
VH: B1 VH with A75D, I81L, S106G, I111A
VL: B1 VL with H39Q, Q42L, A48S, R50Q, I94Y
notes: one-arm
B27: TR01H082-E22Hh/none-Hi-Kn010G3/TR01L018-k0 (antibody, V domains shown)
VH: B1 VH with A75D, I81L, S106G, I111A
VL: B1 VL with R24Q, S25A, Q27E, I38L, Q42L, A48S, R50Q, I94G
notes: one-arm
B28: TR01H082-E22Hh/none-Hi-Kn010G3/TR01L023-k0 (antibody, V domains shown)
VH: B1 VH with A75D, I81L, S106G, I111A
VL: B1 VL with I38L, Q42L, A48S, R50Q, I94T
notes: one-arm
B29: TR01H083-E22Hh/none-Hi-Kn010G3/L0262-k0 (antibody, V domains shown)
VH: B1 VH with Q56N, S106G
VL: B1 VL with S28P, I38L, I94A
notes: one-arm
B30: TR01H084-E22Hh/none-Hi-Kn010G3/L0262-k0 (antibody, V domains shown)
VH: B1 VH with L11V, R16G, S106G
VL: B1 VL with S28P, I38L, I94A
notes: one-arm
B31: TR01H084-E22Hh/none-Hi-Kn010G3/L0270-k0 (antibody, V domains shown)
VH: B1 VH with L11V, R16G, S106G
VL: B1 VL with P29L, N35Q, I38L, I94G
notes: one-arm
B32: TR01H084-E22Hh/none-Hi-Kn010G3/L0271-k0 (antibody, V domains shown)
VH: B1 VH with L11V, R16G, S106G
VL: B1 VL with S28P, N35Q, I38L, I94G
notes: one-arm
B33: TR01H084-E22Hh/none-Hi-Kn010G3/L0272-k0 (antibody, V domains shown)
VH: B1 VH with L11V, R16G, S106G
VL: B1 VL with S28P, P29L, N35Q, I38L, I94G
notes: one-arm
B34: TR01H062-E22Hh/none-Hi-Kn010G3/L0000-k0 (antibody, V domains shown)
VH: B1 VH with I111A
VL: DIVMTQSPLSLPVTPGEPASISCRSSQSLVHSNRNTYLHWYQQKPGQAPRLLIYKVSNRFSGVPDRFSGSGSGTDFTLKISRVEAEDVGVYYCGQGTQVPYTFGQGTKLEIKR
notes: one-arm
B35: CE115HA121-E22Hh/-Hi-Kn010G3/L0000-k0 (antibody, V domains shown)
VH: B1 VH with L11V, Q50L, D53A, Q56N, A75D, I81L, A104G, S106Y, I111A
VL: B34 VL
notes: one-arm
B36: CE115HA124-E22Hh//-Hi-Kn010G3/L0000-k0 (antibody, V domains shown)
VH: B1 VH with L11V, D53A, K54L, Q56N, A75D, I81L, A104G, S106Y, I111A
VL: B34 VL
notes: one-arm
B37: CE115HA177-G1dh//-Hi-Kn010G3/L0000-k0 (antibody, V domains shown)
VH: B1 VH with D53A, Q56N, A104G, S106Y, I111A
VL: B34 VL
notes: one-arm
B38: CE115HA178-G1dh//-Hi-Kn010G3/L0000-k0 (antibody, V domains shown)
VH: B1 VH with D53A, Q56N, A75D, A104G, S106Y, D110Q, I111A
VL: B34 VL
notes: one-arm
B39: CE115HA179-G1dh//-Hi-Kn010G3/L0000-k0 (antibody, V domains shown)
VH: B1 VH with D53A, Q56N, A104G, S106Y, D110Q, I111A
VL: B34 VL
notes: one-arm
B40: CE115HA180-G1dh//-Hi-Kn010G3/L0000-k0 (antibody, V domains shown)
VH: B1 VH with L11V, D53A, Q56N, I81L, A104G, S106Y, D110Q, I111A
VL: B34 VL
notes: one-arm
B41: CE115HA192-E22Hh//-Hi-Kn010G3/L0000-k0 (antibody, V domains shown)
VH: B1 VH with L11V, D53A, Q56N, A75D, I81L, A104Y, S106Y, I111A
VL: B34 VL
notes: one-arm
B42: CE115HA252-E22Hh//-Hi-Kn010G3/L0000-k0 (antibody, V domains shown)
VH: QVQLVESGGGVVQPGRSLRLSCAASGFTFSNAWMHWVRQAPGKGLEWVAQIKAKSNNYKKYYAESVKGRFTISRDDSKNSLYLQMNSLKTEDTAVYYCRYVHYYYYYGVDAWGQGTTVTVSS
VL: B34 VL
notes: one-arm
B43: TR01H003-E22Hh//-Hi-Kn010G3/L0000-k0 (antibody, V domains shown)
VH: B42 VH with K59A, K60T, Y100R, Y104G, Y105A
VL: B34 VL
notes: one-arm
B44: TR01H004-E22Hh//-Hi-Kn010G3/L0000-k0 (antibody, V domains shown)
VH: B42 VH with K59A, K60T, Y100R
VL: B34 VL
notes: one-arm; also called TR01H004-E22Hh//-Hi-Kn010G3/10000-ko
B45: TR01H006-E22Hh/none-Hi-Kn010G3/L0000-k0 (antibody, V domains shown)
VH: B1 VH with D53A, A104G, S106Y
VL: B34 VL
notes: one-arm
B46: TR01H007-E22Hh/none-Hi-Kn010G3/L0000-k0 (antibody, V domains shown)
VH: B1 VH with D53S, Q56N, A104G, S106Y
VL: B34 VL
notes: one-arm
B47: TR01H008-E22Hh/none-Hi-Kn010G3/L0000-k0 (antibody, V domains shown)
VH: B1 VH with D53G, Q56N, A104G, S106Y
VL: B34 VL
notes: one-arm
B48: TR01H009-E22Hh/none-Hi-Kn010G3/L0000-k0 (antibody, V domains shown)
VH: B1 VH with D53A, Q56N, E64P, A104G, S106Y
VL: B34 VL
notes: one-arm

Target: T1, soluble human CD3 epsilon chain (human, UniProt P07766 23-126)
T1 construct: also called CD3ε
T1 sequence (P07766 23-126 limits assumed): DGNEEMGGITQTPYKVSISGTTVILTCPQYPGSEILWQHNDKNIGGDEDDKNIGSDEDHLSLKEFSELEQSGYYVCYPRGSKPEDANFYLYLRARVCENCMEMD
Assay: SPR

Row | Kd | Binder
1 | 47.1 nM | B1
2 | 60.3 nM | B2
3 | 74.1 nM | B3
4 | 132 nM | B4
5 | 139 nM | B5
6 | 49.2 nM | B6
7 | 86.4 nM | B7
8 | 10.9 nM | B8
9 | 52.6 nM | B9
10 | 6.13 nM | B10
11 | 9.51 nM | B11
12 | 25.1 nM | B12
13 | 5.76 nM | B13
14 | 47 nM | B14
15 | 50.7 nM | B15
16 | 45.3 nM | B16
17 | 39.8 nM | B17
18 | 30.9 nM | B18
19 | 34.4 nM | B19
20 | 22.9 nM | B20
21 | 22.9 nM | B21
22 | 136 nM | B22
23 | 74.2 nM | B23
24 | 68.2 nM | B24

Row | Kd | Binder
25 | 74.4 nM | B25
26 | 109 nM | B26
27 | 47.2 nM | B27
28 | 42.5 nM | B28
29 | 2.45 nM | B29
30 | 8.51 nM | B30
31 | 27.6 nM | B31
32 | 27.6 nM | B32
33 | 31 nM | B33
34 | 31.3 nM | B34
35 | 67.6 nM | B35
36 | 143 nM | B36
37 | 35.5 nM | B37
38 | 10.9 nM | B38
39 | 8.35 nM | B39
40 | 16.8 nM | B40
41 | 50.5 nM | B41
42 | 9.48 nM | B42
43 | 40.3 nM | B43
44 | 135 nM | B44
45 | 23 nM | B45
46 | 21.7 nM | B46
47 | 42.2 nM | B47
48 | 31.5 nM | B48
